Results from patent US20110045604A1.

How the values were obtained:
[1] = molecular target: SUMO-ARVCF peptide fusion protein (yeast); experiment: SPR; linker mutant immobilised on Ni-NTA chip, SUMO-peptide fusion as analyte
[2] = molecular target: SUMO-ARVCF peptide fusion protein (yeast); experiment: SPR; clamp immobilised on Ni-NTA chip, SUMO-peptide fusion as analyte
[3] = molecular target: SUMO-δ-catenin peptide fusion protein (yeast); experiment: ratio of SPR Kd values, reference ARVCF peptide
[4] = molecular target: SUMO-δ-catenin peptide fusion protein (yeast); experiment: binding analysis of purified protein; reference ARVCF peptide
[5] = molecular target: SUMO-ARVCF peptide fusion protein (yeast); experiment: SPR (BIAcore 2000); clamp immobilised on Ni-NTA chip, SUMO-peptide fusion as analyte
[6] = molecular target: SUMO-ARVCF peptide fusion protein, Ala substitution at position -5 (yeast); experiment: SPR, Ala scanning; reference wild-type ARVCF peptide
[7] = molecular target: SUMO-ARVCF peptide fusion protein, Ala substitution at position -6 (yeast); experiment: as above
[8] = molecular target: SUMO-ARVCF peptide fusion protein, Ala substitution at position -4 (yeast); experiment: as above
[9] = molecular target: SUMO-ARVCF peptide fusion protein, Ala substitution at position -7 (yeast); experiment: as above
[10] = molecular target: SUMO-ARVCF peptide fusion protein (yeast); experiment: SPR; linker mutant against ePDZ-b with the GGSGG linker

Sequence of ePDZ-b linker mutant GGSG (Q96RT1 other isoform, or with tags, fused parts or gaps, stated change not applied): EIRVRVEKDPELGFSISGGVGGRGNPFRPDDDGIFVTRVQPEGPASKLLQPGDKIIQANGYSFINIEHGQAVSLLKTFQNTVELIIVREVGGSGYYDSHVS
Sequence of ePDZ-a linker mutant GGS (Q96RT1 other isoform, or with tags, fused parts or gaps, change not shown): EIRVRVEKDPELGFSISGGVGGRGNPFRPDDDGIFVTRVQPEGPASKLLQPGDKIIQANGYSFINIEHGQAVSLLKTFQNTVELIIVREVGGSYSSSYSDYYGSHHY
Sequence of ePDZ-a linker mutant GG (Q96RT1 other isoform, or with tags, fused parts or gaps, change not shown): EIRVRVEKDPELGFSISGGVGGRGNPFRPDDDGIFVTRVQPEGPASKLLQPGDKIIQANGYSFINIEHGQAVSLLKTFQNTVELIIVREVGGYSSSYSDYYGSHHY
Sequence of ePDZ-a linker mutant GGSG (Q96RT1 other isoform, or with tags, fused parts or gaps, change not shown): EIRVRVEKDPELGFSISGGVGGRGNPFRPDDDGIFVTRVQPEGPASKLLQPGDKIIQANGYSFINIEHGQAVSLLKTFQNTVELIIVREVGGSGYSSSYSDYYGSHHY
Sequence of ePDZ-b linker mutant GGS (Q96RT1 other isoform, or with tags, fused parts or gaps, change not shown): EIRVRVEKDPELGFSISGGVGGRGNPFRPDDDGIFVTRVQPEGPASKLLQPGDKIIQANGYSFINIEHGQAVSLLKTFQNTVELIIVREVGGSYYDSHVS

ePDZ-a linker mutant GG (from UniProt Q96RT1 1321-1410) (designed binder)
Kd [1]: 311 nM

ePDZ-a linker mutant GGS (from UniProt Q96RT1 1321-1410) (designed binder)
Kd [1]: 134 nM

ePDZ-a linker mutant GGSG (from UniProt Q96RT1 1321-1410) (designed binder)
Kd [1]: 117 nM

ePDZ-b (from UniProt Q96RT1 1321-1410) (designed binder)
Kd [2]: 56 nM
Specificity Index (Kd for δ-catenin / Kd for ARVCF) [3]: > 446
fold discrimination between the two targets [4]: 200 fold
Kd [5]: 56 nM
koff [5]: 0.011 s⁻¹
kon [5]: 190000 M⁻¹ s⁻¹
fold decrease in binding affinity against the wild-type ARVCF peptide [6]: > 5 fold
ΔΔG upon Ala substitution of the ARVCF peptide [6]: > 1 kcal/mol
fold decrease in binding affinity against the wild-type ARVCF peptide [7]: > 5 fold
ΔΔG upon Ala substitution of the ARVCF peptide [7]: > 1 kcal/mol
fold decrease in binding affinity against the wild-type ARVCF peptide [8]: > 5 fold
ΔΔG upon Ala substitution of the ARVCF peptide [8]: > 3 kcal/mol
fold decrease in binding affinity against the wild-type ARVCF peptide [9]: > 5 fold
ΔΔG upon Ala substitution of the ARVCF peptide [9]: > 1 kcal/mol

ePDZ-b linker mutant GGS (from UniProt Q96RT1 1321-1410) (designed binder)
Kd [1]: > 5000 nM

ePDZ-b linker mutant GGSG (from UniProt Q96RT1 1321-1410) (designed binder)
fold reduction of binding affinity against the original linker [10]: 8 fold
Kd [1]: 412 nM
